Test results as given in paper PMC3342813 (2011).

B1: BT2127 (Bacteroides thetaiotaomicron VPI-5482) (protein)
chain: MRKKLKAVLFDMDGVLFNSMPYHSEAWHQVMKTHGLDLSREEAYMHEGRTGASTINIVFQRELGKEATQEEIESIYHEKSILFNSYPEAERMPGAWELLQKVKSEGLTPMVVTGSGQLSLLERLEHNFPGMFHKELMVTAFDVKYGKPNPEPYLMALKKGGLKADEAVVIENAPLGVEAGHKAGIFTIAVNTGPLDGQVLLDAGADLLFPSMQTLCDSWDTIML

Tests used:
[1] = molecular target: T1, BT2127 (Bacteroides thetaiotaomicron, UniProt Q8A5V9); assay: steady-state competitive inhibition of pyrophosphate hydrolysis; assay type: biochemical
T1 sequence (Q8A5V9 1-224): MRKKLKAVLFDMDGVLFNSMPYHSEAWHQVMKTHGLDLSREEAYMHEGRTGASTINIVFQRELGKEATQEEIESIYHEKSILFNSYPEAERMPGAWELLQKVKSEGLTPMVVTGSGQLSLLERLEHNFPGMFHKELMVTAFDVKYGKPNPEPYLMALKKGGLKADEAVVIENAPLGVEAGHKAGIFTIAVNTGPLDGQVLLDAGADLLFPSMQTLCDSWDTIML

[2] = substrate: O=P(O)(O)OCC(O)CO; assay: purified protein; details: Mg2+; pH 7.5; 25.0 °C
[3] = substrate: O=[N+]([O-])c1ccc(OP(=O)(O)O)cc1; assay: purified protein; details: Mg2+; pH 7.5; 25.0 °C
[4] = substrate: O=c1ccn([C@@H]2O[C@H](COP(=O)(O)O)[C@@H](O)[C@H]2O)c(=O)[nH]1; assay: purified protein; details: Mg2+; pH 7.5; 25.0 °C

Row | Molecule | Ki [1] | Km [2] | kcat [2] | kcat/Km [2] | Km [3] | kcat [3] | kcat/Km [3] | Km [4] | kcat [4] | kcat/Km [4]
1 | O=P(O)(O)NP(=O)(O)O [imidodiphosphate] | 13 ± 1 µM |  |  |  |  |  |  |  |  | 
2 | B1 |  | 4800 ± 300 µM | 0.35 s⁻¹ | 70 M⁻¹ s⁻¹ | 50 ± 10 µM | 0.0019 s⁻¹ | 40 M⁻¹ s⁻¹ | 2600 ± 400 µM | 0.15 s⁻¹ | 60 M⁻¹ s⁻¹
